± gives the standard deviation.
Assay: protein stability index of a GFP-peptide fusion (GPS, HEK-293T) (PSI 1-6); higher = more stable
Details: c terminus: a fixed tail appended
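Note: 24-mer peptide tiles fused after GFP, lentivirally expressed, FACS-sorted into six equal bins by GFP/DsRed ratio, decoded by Illumina sequencing, PSI is the read-weighted mean bin number.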

Sequence: GVIAAIVQLHNGTKYKKFPHWLDK [STEAP1]
- protein stability index (treatment: DMSO): 2.6 ± 0.31
- protein stability index (treatment: MLN4924 1 uM, 8 h): 2.39 ± 0.63

Sequence: DFYEAMDDYTSAIEVQPNFEVPYY [TTC32]
- protein stability index (treatment: DMSO): 2.64 ± 0.23
- protein stability index (treatment: MLN4924 1 uM, 8 h): 2.84 ± 0.3

Sequence: SYWEDLRKQARQLENELDLKLVSF [GOSR1]
- protein stability index (treatment: DMSO): 2.37 ± 0.24
- protein stability index (treatment: MLN4924 1 uM, 8 h): 2.57 ± 0.2

Sequence: KSVQGTGLAFIAFTEAMTHFPASP [SLC6A17]
- protein stability index (treatment: DMSO): 2.19 ± 0.49
- protein stability index (treatment: MLN4924 1 uM, 8 h): 2.22 ± 0.12

Sequence: GTAPLNQETAEFFLSLDIPIGELY [ACSBG2]
- protein stability index (treatment: DMSO): 1.89 ± 0.26
- protein stability index (treatment: MLN4924 1 uM, 8 h): 2.32 ± 0.26

Sequence: DIRYLLGYVSQQGGQRSTPLIIAA [FEM1B]
- protein stability index (treatment: DMSO): 2.5 ± 0.41
- protein stability index (treatment: MLN4924 1 uM, 8 h): 2.62 ± 0.21

Sequence: LGWNSTERSLRLQARYHDTPYKPP [MYORG]
- protein stability index (treatment: DMSO): 2.88 ± 0.3
- protein stability index (treatment: MLN4924 1 uM, 8 h): 3.2 ± 0.22

Sequence: FLCGRALTSDLYAPMVAGALARLG [SLC25A39]
- protein stability index (treatment: DMSO): 2.85 ± 0.26
- protein stability index (treatment: MLN4924 1 uM, 8 h): 3.02 ± 0.64

Sequence: YSLLPQSTAPGLFLVSTHTGEVRT [PCDHGC5]
- protein stability index (treatment: DMSO): 3.07 ± 0.14
- protein stability index (treatment: MLN4924 1 uM, 8 h): 3.07 ± 0.29

Sequence: DPNTRPVGEKNCTGPPCDRQWTVS [ADAMTSL2]
- protein stability index (treatment: DMSO): 4.89 ± 0.15
- protein stability index (treatment: MLN4924 1 uM, 8 h): 4.86 ± 0.32

Sequence: IKPNEILPPEKGREVAKELGIPYY [RHOBTB2]
- protein stability index (treatment: DMSO): 3.73 ± 0.14
- protein stability index (treatment: MLN4924 1 uM, 8 h): 3.79 ± 0.12

Sequence: LKPFFMKEVGSHFDDFVTNLIEKS [SOAT1]
- protein stability index (treatment: DMSO): 2.48 ± 0.32
- protein stability index (treatment: MLN4924 1 uM, 8 h): 2.88 ± 0.13

Sequence: EAYIAKQKRLKSKLLDHDNVKYLK [GDAP1]
- protein stability index (treatment: DMSO): 3.15 ± 0.32
- protein stability index (treatment: MLN4924 1 uM, 8 h): 3.45 ± 0.55

Sequence: SGREHNFTRPNEKGEYEVAEGIGS [BTBD10]
- protein stability index (treatment: DMSO): 5.11 ± 0.25
- protein stability index (treatment: MLN4924 1 uM, 8 h): 4.99 ± 0.33

Sequence: KCGDLECEALINRVSAMRDYRGPD [MIA2]
- protein stability index (treatment: DMSO): 3.25 ± 0.63
- protein stability index (treatment: MLN4924 1 uM, 8 h): 3.21 ± 0.076

Sequence: ERSLVLDRLASNVAKRKSSMPQKF [IKZF1]
- protein stability index (treatment: DMSO): 3.6 ± 0.23
- protein stability index (treatment: MLN4924 1 uM, 8 h): 3.84 ± 0.29

Sequence: SGSLEILQLLLGCKARMERDGYGM [FEM1A]
- protein stability index (treatment: DMSO): 2.92 ± 0.51
- protein stability index (treatment: MLN4924 1 uM, 8 h): 3.05 ± 0.6

Sequence: NNQITCRNGQWSEPPKCLDPCVIS [CFHR2]
- protein stability index (treatment: DMSO): 3.34 ± 0.2
- protein stability index (treatment: MLN4924 1 uM, 8 h): 3.32 ± 0.25

Sequence: RGVHCWVCDESVRKLSSAVRSGIV [PRIM1]
- protein stability index (treatment: DMSO): 2.24 ± 0.22
- protein stability index (treatment: MLN4924 1 uM, 8 h): 2.19 ± 0.14

Sequence: MGHIKPDLIDVDLIRGSTFAKAKP [PHTF1]
- protein stability index (treatment: DMSO): 3.56 ± 0.24
- protein stability index (treatment: MLN4924 1 uM, 8 h): 3.67 ± 0.35

Sequence: AGTAGHPPSGSQPLTSTQGLEHAA [FBF1]
- protein stability index (treatment: DMSO): 4.84 ± 0.11
- protein stability index (treatment: MLN4924 1 uM, 8 h): 4.89 ± 0.35

Sequence: PGAGSRRRGRMALCGQAAGAASLP [FBXO33]
- protein stability index (treatment: DMSO): 2.76 ± 0.2
- protein stability index (treatment: MLN4924 1 uM, 8 h): 2.97 ± 0.17

Sequence: FLLRNSQRTVGQLMELCRLYHRAD [EDARADD]
- protein stability index (treatment: DMSO): 2.12 ± 0.24
- protein stability index (treatment: MLN4924 1 uM, 8 h): 2.23 ± 0.25

Sequence: AGQEGEDTLRRRLLAPEAGSHPQQ [TOR1AIP2]
- protein stability index (treatment: DMSO): 3.22 ± 0.89
- protein stability index (treatment: MLN4924 1 uM, 8 h): 3.8 ± 0.52

Sequence: LPQEHSQIYHCTKRKEEECSTTDH [TBX5]
- protein stability index (treatment: DMSO): 5.39 ± 0.21
- protein stability index (treatment: MLN4924 1 uM, 8 h): 5.49 ± 0.11

Sequence: LMADKVLRWERAWFPPAIMGVVSL [ARL6IP1]
- protein stability index (treatment: DMSO): 3.13 ± 0.66
- protein stability index (treatment: MLN4924 1 uM, 8 h): 2.45 ± 0.86

Sequence: FFSEIISSVSDVKFSHSGRYMLTR [PPP2R2C]
- protein stability index (treatment: DMSO): 2.08 ± 0.48
- protein stability index (treatment: MLN4924 1 uM, 8 h): 2.06 ± 0.22

Sequence: HGSGGSGYPAAPPAVPFAPHFLQG [TBX6]
- protein stability index (treatment: DMSO): 2.94 ± 0.3
- protein stability index (treatment: MLN4924 1 uM, 8 h): 3.06 ± 0.31

Sequence: YVRMVFLALYVLFLADEEFDVVVC [ALG2]
- protein stability index (treatment: DMSO): 3.1 ± 0.71
- protein stability index (treatment: MLN4924 1 uM, 8 h): 2.93 ± 1

Sequence: RVEVLTDAGGWVLIDRSGRHFGTI [KCTD13]
- protein stability index (treatment: DMSO): 2.37 ± 0.46
- protein stability index (treatment: MLN4924 1 uM, 8 h): 2.38 ± 0.7

Sequence: LEKPPAPNQAMVVAAAGDACPPQH [TBC1D10A]
- protein stability index (treatment: DMSO): 5.21 ± 0.21
- protein stability index (treatment: MLN4924 1 uM, 8 h): 5.2 ± 0.33

Sequence: SKSGYLRYSCESRIRSYLREVSSY [DFFB]
- protein stability index (treatment: DMSO): 2.1 ± 0.17
- protein stability index (treatment: MLN4924 1 uM, 8 h): 2.34 ± 0.37

Sequence: RQNDILQVVSQGWKYFKGNFYYFS [CD207]
- protein stability index (treatment: DMSO): 2.3 ± 0.73
- protein stability index (treatment: MLN4924 1 uM, 8 h): 2.06 ± 0.58

Sequence: AAWIGGFLHSLVQFLFIYQLPFCG [OR4A15]
- protein stability index (treatment: DMSO): 3.92 ± 0.8
- protein stability index (treatment: MLN4924 1 uM, 8 h): 3.21 ± 0.6

Sequence: ISEEIQMSTKESDFLCLLGVSYTF [MIA2]
- protein stability index (treatment: DMSO): 2.4 ± 0.45
- protein stability index (treatment: MLN4924 1 uM, 8 h): 2.76 ± 0.92

Sequence: SSSKWQRRDYLLLVMEGTDDGRLL [APMAP]
- protein stability index (treatment: DMSO): 2.88 ± 0.43
- protein stability index (treatment: MLN4924 1 uM, 8 h): 2.32 ± 0.39

Sequence: CGNIKAPSLQAWNDAPCDKTFLFI [CD207]
- protein stability index (treatment: DMSO): 2.72 ± 0.41
- protein stability index (treatment: MLN4924 1 uM, 8 h): 2.49 ± 0.55

Sequence: QKNFELAFTMAENLANCERLIEVE [SMTNL2]
- protein stability index (treatment: DMSO): 2.45 ± 0.2
- protein stability index (treatment: MLN4924 1 uM, 8 h): 2.88 ± 0.67

Sequence: EMKLQKNFLTQRENTIAGANHTHT [C10orf62]
- protein stability index (treatment: DMSO): 3.78 ± 0.44
- protein stability index (treatment: MLN4924 1 uM, 8 h): 3.65 ± 0.4

Sequence: QQPSLNTMIQQQNMQQPMNVMTQS [CLINT1]
- protein stability index (treatment: DMSO): 4.41 ± 0.21
- protein stability index (treatment: MLN4924 1 uM, 8 h): 4.52 ± 0.087

Sequence: VQDEFLDTPCTNRGLPLLKTDFGS [DLC1]
- protein stability index (treatment: DMSO): 3.85 ± 0.43
- protein stability index (treatment: MLN4924 1 uM, 8 h): 3.91 ± 0.41

Sequence: LLLASGLVITDFFGHLINGAIAVF [PTGFR]
- protein stability index (treatment: DMSO): 3.29 ± 0.72
- protein stability index (treatment: MLN4924 1 uM, 8 h): 3.19 ± 0.86

Sequence: LLKRMESLKLKSSHHSKHKAPSKL [DLC1]
- protein stability index (treatment: DMSO): 3.03 ± 0.36
- protein stability index (treatment: MLN4924 1 uM, 8 h): 3.1 ± 0.51

Sequence: EKKRKEEEERRRREEEERERLQKE [ACBD3]
- protein stability index (treatment: DMSO): 5.45 ± 0.36
- protein stability index (treatment: MLN4924 1 uM, 8 h): 5.49 ± 0.25

Source: the supplement of paper PMC10567573
